According to US20110200629A1:

Molecular target: T1, HLA-A0201 (human), P04439
T1 chain: not shown

**Q.** With RGYVYQGL (modifications not checked) [murine H-2 Kb binding peptide VSV8 (RGYVYQGL, SEQ ID NO:6)] as the binder, how does the % MFI increase read?
**A.** 5.6%
